{
  "source": "the supplement of paper PMC9170038",
  "data": [
    {"test_system": "MS2 coat protein", "test": "apparent KD of MS2 coat protein, switch OFF state (with FMN for OFF switches, without FMN for ON switches); designed switch direction (-1 OFF switch, 1 ON switch): -1; higher = weaker reporter binding", "conditions": "FMN input: 0 or 200 uM; Eterna round: R93 (includes R88 designs)", "how_it_was_run": "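Illumina sequencing clusters were used for on-chip transcription of designed RNA switches. Titration with SNAP-549-labelled MS2 coat protein followed, in twofold steps from 0.7 or 1.5 nM to 3 µM in 100 mM Tris-HCl pH 7.5, 80 mM KCl, 4 mM MgCl2, without or with constant ligand. Apparent KD is each design's median of fits to normalised cluster binding curves.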", "units": {"apparent KD of MS2 coat protein": "nM"}, "values": [
      {"sequence": "AAGAAGUCAGGAUAUGCCAGAGAACAAGAAAGUGACGAAUAGCAGAAGGGACAUGAGGAUCACCCAUGUAAAGA [Opal 10]", "apparent KD of MS2 coat protein": 21.9},
      {"sequence": "AAGAAGCAAGGAUAUACAUGAGGAUCACCCAUGUAAAAGAAAGAAGGGAAAGAGAAAAGUAGAAGGUGCAAGAA [Shepsesre Tefnakhte]", "apparent KD of MS2 coat protein": 30.1},
      {"sequence": "AUAAACGGAGGAUAUACAUGAGGAUCACCCAUGUAAAAAAAAAAAAGUUCCUCAAAAAGUAGAAGGUCGAAUAA [JR_Exc003_Sub012]", "apparent KD of MS2 coat protein": 13},
      {"sequence": "UAAAAGUGAGGAUAUUCGGAUAGGAAAACGAAAACCUAUCCGAAGAAGGCACAUGAGGAUCACCCAUGUGGAAU [Mat - Exaclusion 4 - Eli mod - D48]", "apparent KD of MS2 coat protein": 36},
      {"sequence": "AACCAACAUGAGGAUCACCCAUGUCAGGAUAUGCGUACAACAUACAACAUACAUCAAAGCAGAAGGGACACAAA [Amethyst 84]", "apparent KD of MS2 coat protein": 23.6},
      {"sequence": "GAAAAACAUGAGGAUCACCCAUGUAAGGAUAUGCUGAAAAAACACUGGAAACAGUGCAGCAGAAGGUACAAAAG [Mat - Exclusion 1 - Eli mod - D100]", "apparent KD of MS2 coat protein": 73.3},
      {"sequence": "AAAAAAGCAGGAUAUACGAACAUGUCAAAAGACGUGAAGGGACAUGAGGAUCACCCAUGUAGAAGGGUUAAGAA [JL Stem Breaker 16]", "apparent KD of MS2 coat protein": 36.8},
      {"sequence": "AGCAAGUCAGGAUAUGCGAAGUCAGGACACACACUGACGAAGCAGAAGGGACAUGAGGAUCACCCAUGUAAGCA [JR_Exclusion4_Sub6]", "apparent KD of MS2 coat protein": 39.3},
      {"sequence": "AACAGUACAGGAUAUACAUGAGGAUCACCCAUGUGAAAAUUAAGUGGAAAACCACAGUGUAGAAGGGUACUGGA [Mat - Exclusion 3 - Eli mod - D53]", "apparent KD of MS2 coat protein": 191},
      {"sequence": "AAAUGUCUAGGAUAUACAUGAGGAUCACCCAUGUGUAAAAAUAAAUACACAAAAGAAAGUAGAAGGAGACAAAA [Ex 3 May 13]", "apparent KD of MS2 coat protein": 47.3},
      {"sequence": "AAAGGACGAGGAUAUACAUGAGGAUCACCCAUGUAAAAAGCGUAGUAAAAGAACUUAUGUAGAAGGCGUCCAAA [Meechl Ex3 2 R2 v3]", "apparent KD of MS2 coat protein": 137},
      {"sequence": "AACAGUACAGGAUAUACAUGAGGAUCACCCAUGUGAGAAUUAAGUGGCGUACCACAAAGUAGAAGGGUACUGAA [Mat - Exclusion 3 - JL mod - D6]", "apparent KD of MS2 coat protein": 97.3},
      {"sequence": "AAAGGUUGAGGAUAUGCGUGGAAAAAGUGUAUUCAAAAAAAACAUGAGGAUCACCCAUGUAGAAGGCGACCAAA [MS2 Riboswitches On Chip Exclusion 2 wbt3]", "apparent KD of MS2 coat protein": 163},
      {"sequence": "GAAGAACAUGAGGAUCACCCAUGUCAGGAUAUGCACUACGGAAUAAUAAGUAAUGGAAGUAGAAGGGACAAGAA [Ex 1 May 53]", "apparent KD of MS2 coat protein": 26.4},
      {"sequence": "AAAAAACAUGAGGAUCACCCAUGUAAGGAUAUCGAAAAGAAAAGAAAAGAAAGAAGAACGAGAAGGUACAAGAA [Neferirkare Kakai]", "apparent KD of MS2 coat protein": 16},
      {"sequence": "AUAAAGUGAGGAUAUACAUGAGGAUCACCCAUGUAAGAAAUAAAAUAAAUAAAGGGAAGUAGAAGGCACAAAUA [Denovo 1]", "apparent KD of MS2 coat protein": 41.3},
      {"sequence": "ACCCUGCUAGGAUAUACAGCAGGGAUUCGAAAACCCACGAAACAUGAGGAUCACCCAUGUAGAAGGAGUAGGGA [Bimaat]", "apparent KD of MS2 coat protein": 16},
      {"sequence": "AAGAAGAGAGGAUAUACAUGAGGAUCACCCAUGUAAAAGAAAGAGGGAAAAGAGAAAAGUAGAAGGCUCAAGAA [Arsinoe II]", "apparent KD of MS2 coat protein": 37},
      {"sequence": "AAAAAACAUGAGGAUCACCCAUGUGAGGAUAUGCAUAAAAAAAAAAAAAAAAAAAAAUGCAGAAGGCACAUAAA [jn_bayonne]", "apparent KD of MS2 coat protein": 78.5},
      {"sequence": "AAGGUACGAGGAUAUACAUAGAUACAGAUACAUGUAGACGUACAUGAGGAUCACCCAUGUAGAAGGCGUAUAUA [AJ 24]", "apparent KD of MS2 coat protein": 83},
      {"sequence": "AAAAAGGGAGGAUAUACAUGAGGAUCACCCAUGUAAAACGCGCCAACAAAGAAACAAAGUAGAAGGCCCAAAAA [Default title]", "apparent KD of MS2 coat protein": 14.5},
      {"sequence": "ACCAGACAUGAGGAUCACCCAUGUCAGGAUAUCUAGAAAACCUCAUGUAAAAAAAUCUAGAGAAGGGAUAUGGA [Design 94: Pseudoknot D]", "apparent KD of MS2 coat protein": 54.7},
      {"sequence": "AAAAAGCGAGGAUAUACGAGUCAAAGAAAAGACAAAGGGAAACAUGAGGAUCACCCAUGUAGAAGGCGCAAAAA [Fiskers exclusion D2 62% 1]", "apparent KD of MS2 coat protein": 134},
      {"sequence": "AAGAAGUGAGGAUAUCGAAGACAGACGAAAAGUCUGUCAAACGAGAAGGCACAUGAGGAUCACCCAUGUGAGAA [What have we learned so far? 64% 2]", "apparent KD of MS2 coat protein": 38.1},
      {"sequence": "AGCAAACAUGAGGAUCACCCAUGUCAGGAUAUGAACGAAAUAAAAUAAAAAUAAAAGUUCAGAAGGGACGAGCA [Mat - Exclusion 1 - Eli mod - D24]", "apparent KD of MS2 coat protein": 43.5},
      {"sequence": "AAAGGGUCAGGAUAUGUACGAACAACAAAACAAAUAACGAUACAGAAGGGACAUGAGGAUCACCCAUGUAUAAA [May 74]", "apparent KD of MS2 coat protein": 70.6},
      {"sequence": "GGUUGGCGAGGAUAUACAUGAGGAUCACCCAUGUGAGAGAAAAAAGUGAGGAGGGAAAGUAGAAGGCGCUGACG [salish99-ex3-16]", "apparent KD of MS2 coat protein": 41.9},
      {"sequence": "AAUAAGUGAGGAUAUGCAAAUAAUAAAUAAAAUAAAAUAAAGCAGAAGGCACAUGAGGAUCACCCAUGUAAAUA [JR_Exc004_Sub001]", "apparent KD of MS2 coat protein": 29.5},
      {"sequence": "AAUGCGGCAGGAUAUACAUGAGGAUCACCCAUGUAGAUCAGAUAUAUGGGAAAGCCAUGUAGAAGGGCCGCAAA [Ex 3May 61]", "apparent KD of MS2 coat protein": 24.8},
      {"sequence": "CCAAACGGAGGAUAUACAAAUUAAGGAAAAAAACGCGAAAAACAUGAGGAUCACCCAUGUAGAAGGCCGAAAAA [Ex 2 #2]", "apparent KD of MS2 coat protein": 18.5},
      {"sequence": "CCAAAGUGAGGAUAUACGCGAACAAAAAAAAAAAAGAAAGCGUAGAAGGCACAUGAGGAUCACCCAUGUCCAGG [Alfred 64% 1]", "apparent KD of MS2 coat protein": 99.3},
      {"sequence": "AGCAGGUGAGGAUAUCGAUUAAGAUUAACAUUAUUAUUAAACGAGAAGGCACAUGAGGAUCACCCAUGUAAGGA [Exclusion 4Col]", "apparent KD of MS2 coat protein": 51.8},
      {"sequence": "AAAUGCUGAGGAUAUACAUGAGGAUCACCCAUGUGAAAUAAAAAAUGUGUGUAAGCGUGUAGAAGGCAGCAUAA [Exclusion 3.12 (FMN+ favored)]", "apparent KD of MS2 coat protein": 25.8},
      {"sequence": "GCUUGGGAAGGAUAUACAUGAGGAUCACCCAUGUGAGAGAAAAAAGUGAGAAAGAAAAGUAGAAGGUCCUGAGG [salish99-ex3-108]", "apparent KD of MS2 coat protein": 152},
      {"sequence": "GUGUACAGAGGAUAUACAUGAGCAUGGAAACAUGCAGGAUCACAUGAGGAUCACCCAUGUAGAAGGCUGUACAC [Ex2: 732]", "apparent KD of MS2 coat protein": 12},
      {"sequence": "AAAAGCACAGGAUAUACAAAAAAAUGACGAAAGUCAUAGGGACAUGAGGAUCACCCAUGUAGAAGGGUGCAAAA [Mod of Meechl's... 64% 4]", "apparent KD of MS2 coat protein": 440},
      {"sequence": "AAGAAGCUAGGAUAUACAUGAGGAUCACCCAUGUAAAAGAAAGAAAAGGGAAAGAAAAGUAGAAGGAGCAAGAA [Menpehtire Ramesses I]", "apparent KD of MS2 coat protein": 35.6},
      {"sequence": "AAGAACGCAGGAUAUACUAAAGAAAUGAAAAGAAAUAAAGAACAUGAGGAUCACCCAUGUAGAAGGGCGAAGAA [Merdjefare]", "apparent KD of MS2 coat protein": 32.1},
      {"sequence": "AAAAAACAUGAGGAUCACCCAUGUAAGGAUAUCGGAAAAGGAAAAAAAAAAAAUAAGACGAGAAGGUACACCAA [Mat - Exclusion 1 - Eli mod - D79]", "apparent KD of MS2 coat protein": 31.2},
      {"sequence": "AACAGUACAGGAUAUACAUGAGGAUCACCCAUGUGAAAAUUAAGUGGGAGACCACAAGGUAGAAGGGUACUGGA [Mat - Exclusion 3 - Eli mod - D65]", "apparent KD of MS2 coat protein": 57.7},
      {"sequence": "AGCUAGUCAGGAUAUACGAACAUGUCGGUGGACGUGAAGGGACAUGAGGAUCACCCAUGUAGAAGGGACUAGCA [salish99-Ex2-21]", "apparent KD of MS2 coat protein": 91.5},
      {"sequence": "AAGAAACAUGAGGAUCACCCAUGUGAGGAUAUCGAAGAAAGAAAGAAAGAAAGAAGAACGAGAAGGCACAAAGG [Publius Octavius]", "apparent KD of MS2 coat protein": 59.3},
      {"sequence": "AAAAAGGUAGGAUAUACAUGAGGAUCACCCAUGUACAUAAAUGGAGAAAAAAACAGUAGUAGAAGGGCCAAAAA [Ex3 Malc#10]", "apparent KD of MS2 coat protein": 36.9},
      {"sequence": "AACAAGACAGGAUAUACAUGAGGAUCACCCAUGUCACAAUAAAGUAGCGUAACACAAAGUAGAAGGGUCAUGGA [Ruby 8]", "apparent KD of MS2 coat protein": 50.4},
      {"sequence": "AAGAAGGGAGGAUAUACUAAAGAAAUGAAAAGAAAUAAAGAACAUGAGGAUCACCCAUGUAGAAGGCCCAAGAA [Nehesy]", "apparent KD of MS2 coat protein": 24.8}
    ]}
  ]
}
